We go through two substances from patent publication US20210188986A1.

Assay [1] has as its target human OX40L (recombinant, soluble) (human) (UniProt P23510). Put plainly: cell-based or functional assay.
The target of assay [2] is human TNFα (recombinant, soluble) (human) (UniProt P01375). Put plainly: cell-based or functional assay.
UniProt P01375, sequence (P01375 77-233 limits assumed): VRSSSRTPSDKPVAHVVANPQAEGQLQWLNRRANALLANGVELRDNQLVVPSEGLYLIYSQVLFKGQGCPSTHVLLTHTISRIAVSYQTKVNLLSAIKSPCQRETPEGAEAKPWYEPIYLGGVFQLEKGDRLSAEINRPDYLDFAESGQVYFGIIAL

UniProt P23510, sequence (P23510 51-183 limits assumed): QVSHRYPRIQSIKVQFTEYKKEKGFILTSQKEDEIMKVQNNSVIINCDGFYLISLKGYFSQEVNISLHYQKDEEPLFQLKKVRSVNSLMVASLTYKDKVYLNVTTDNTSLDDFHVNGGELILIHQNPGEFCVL

Consider monospecific anti-OX40L VHH ALX-0632, for which, in assay [1], the % inhibition, Jurkat OX40/TNF-NFκB reporter assay, combined hTNFα+OX40L stimulus was 68% and the IC50 (pM), Jurkat OX40/TNF-NFκB reporter assay, combined hTNFα+OX40L stimulus turned out to be 3060 pM.

On to monospecific anti-TNFα VHH ATN-103, for which, in assay [2], the % inhibition, Jurkat OX40/TNF-NFκB reporter assay, combined hTNFα+OX40L stimulus is 66% and the IC50 (pM), Jurkat OX40/TNF-NFκB reporter assay, combined hTNFα+OX40L stimulus amounted to 387 pM.
